Laboratory results reported in publication PMC11558545, “Mechanistic Insights into the Function of 14-3-3 Proteins as Negative Regulators of Brassinosteroid Signaling in Arabidopsis” (Plant and Cell Physiology, 2024).

B1: BRI1^814-1196: isolated BRI1 cytoplasmic domain (residues 814–1196) after incubation with the BAK1 cytoplasmic domain (protein)
chain: GREMRKRRRKKEAELEMYAEGHGNSGDRTANNTNWKLTGVKEALSINLAAFEKPLRKLTFADLLQATNGFHNDSLIGSGGFGDVYKAILKDGSAVAIKKLIHVSGQGDREFMAEMETIGKIKHRNLVPLLGYCKVGDERLLVYEFMKYGSLEDVLHDPKKAGVKLNWSTRRKIAIGSARGLAFLHHNCSPHIIHRDMKSSNVLLDENLEARVSDFGMARLMSAMDTHLSVSTLAGTPGYVPPEYYQSFRCSTKGDVYSYGVVLLELLTGKRPTDSPDFGDNNLVGWVKQHAKLRISDVFDPELMKEDPALEIELLQHLKVAVACLDDRAWRRPTMVQVMAMFKEIQAGSGIDSQSTIRSIEDGGFSTIEMVDMSIKEVPEGKL
modifications: auto- and transphosphorylated by incubation with BAK1^250−615; sites not given
notes: isolated BRI1 cytoplasmic domain (residues 814–1196) after incubation with the BAK1 cytoplasmic domain
B2: BIN2^7-380: BIN2 (residues 7–380) expressed either in Escherichia coli or in insect cells (protein)
chain: MPAAVVDGHDQVTGHIISTTIGGKNGEPKQTISYMAERVVGTGSFGIVFQAKCLETGETVAIKKVLQDRRYKNRELQLMRVMDHPNVVCLKHCFFSTTSKDELFLNLVMEYVPESLYRVLKHYSSANQRMPLVYVKLYMYQIFRGLAYIHNVAGVCHRDLKPQNLLVDPLTHQVKICDFGSAKQLVKGEANISYICSRFYRAPELIFGATEYTTSIDIWSAGCVLAELLLGQPLFPGENAVDQLVEIIKVLGTPTREEIRCMNPHYTDFRFPQIKAHPWHKIFHKRMPPEAIDFASRLLQYSPSLRCTALEACAHPFFDELREPNARLPNGRPFPPLFNFKQEVAGSSPELVNKLIPDHIKRQLGLSFLNQSGT
modifications: left off: thioredoxin A, N-terminal, cleaved | 8xHis, N-terminal, cleaved | StrepII, N-terminal, cleaved
notes: BIN2 (residues 7–380) expressed either in Escherichia coli or in insect cells
B3: BAK1^250-615: BAK1/SERK3 cytoplasmic domain (residues 250–615) after incubation with BRI1^814−1196 (protein)
chain: RRKKPQDHFFDVPAEEDPEVHLGQLKRFSLRELQVASDNFSNKNILGRGGFGKVYKGRLADGTLVAVKRLKEERTQGGELQFQTEVEMISMAVHRNLLRLRGFCMTPTERLLVYPYMANGSVASCLRERPESQPPLDWPKRQRIALGSARGLAYLHDHCDPKIIHRDVKAANILLDEEFEAVVGDFGLAKLMDYKDTHVTTAVRGTIGHIAPEYLSTGKSSEKTDVFGYGVMLLELITGQRAFDLARLANDDDVMLLDWVKGLLKEKKLEALVDVDLQGNYKDEEVEQLIQVALLCTQSSPMERPKMSEVVRMLEGDGLAERWEEWQKEEMFRQDFNYPTHHPAVSGWIIGDSTSQIENEYPSGPR
modifications: auto- and transphosphorylated by incubation with BRI1^814−1196; sites not given
B4: BSK1^55-512: BSK1 (residues 55–512) after incubation with BRI1^814−1196 (protein)
chain: IPSFSEFSFADLKAATNNFSSDNIVSESGEKAPNLVYKGRLQNRRWIAVKKFTKMAWPEPKQFAEEAWGVGKLRHNRLANLIGYCCDGDERLLVAEFMPNDTLAKHLFHWENQTIEWAMRLRVGYYIAEALDYCSTEGRPLYHDLNAYRVLFDEDGDPRLSCFGLMKNSRDGKSYSTNLAYTPPEYLRNGRVTPESVTYSFGTVLLDLLSGKHIPPSHALDMIRGKNIILLMDSHLEGKFSTEEATVVVELASQCLQYEPRERPNTKDLVATLAPLQTKSDVPSYVMLGIKKQEEAPSTPQRPLSPLGEACSRMDLTAIHQILVMTHYRDDEGTNELSFQEWTQQMKDMLDARKRGDQSFREKDFKTAIDCYSQFIDVGTMVSPTVFGRRSLCYLLCDQPDAALRDAMQAQCVYPDWPTAFYMQSVALAKLNMNTDAADMLNEAAQLEEKRQRGGRGS
modifications: phosphorylated by incubation with BRI1^814−1196 (mainly Ser230); left off: 8xHis, N-terminal, cleaved | tandem StrepII, N-terminal, cleaved

Target: T1, Arabidopsis 14-3-3 isoform kappa (14-3-3κ) (Arabidopsis thaliana, UniProt P48348)
T1 construct: Full-length At14-3-3-κ^1−248 (Uniprot-ID P48348, http://uniprot.org); thioredoxin A (trxA) fusion (N, cleaved yes); 8xHis (N, cleaved yes); StrepII (N, cleaved yes); made in house; host or cells: E. coli BL21 (DE3) RIL
T1 sequence (P48348 whole entry, the tested form may be a part, canonical isoform): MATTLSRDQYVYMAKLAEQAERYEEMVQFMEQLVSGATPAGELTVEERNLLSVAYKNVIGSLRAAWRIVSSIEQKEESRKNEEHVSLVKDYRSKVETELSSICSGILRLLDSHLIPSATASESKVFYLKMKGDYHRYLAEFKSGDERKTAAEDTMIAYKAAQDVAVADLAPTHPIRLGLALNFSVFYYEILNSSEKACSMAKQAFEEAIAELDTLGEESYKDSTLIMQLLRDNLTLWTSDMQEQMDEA
Experiment: biochemical
Format: binding
Conditions: ITC; proteins auto-/transphosphorylated or expressed in E. coli or insect cells as described
From the text: Full-length At14-3-3-κ^1−248 (Uniprot-ID P48348, http://uniprot.org), At14-3-3-λ^1−248 (P48349), At14-3-3-ω^1−259 (Q01525) or C-terminal truncated At14-3-3-κ^1−240, At14-3-3-λ^1−240 or At14-3-3-ω^1−237 isoforms and BIN2^7−380 from Arabidopsis were cloned from synthetic genes codon-optimized for expression in E. coli (Geneart, Thermofisher, Tauberbischofsheim, Germany) into vector pMH-HStrxT providing an N-terminal thioredoxin A (trxA) fusion protein containing 8xHis and StrepII affinity tags, and a tobacco etch virus protease (TEV) recognition site. Protein expression in E. coli BL21 (DE3) RIL grown to OD600nm= 0.6 was induced with 0.2 mM ispropyl β-D-galactoside in terrific broth at 16°C for 16 h. Cells were collected by centrifugation at 4500 × g for 30 min, washed in PBS buffer, centrifuged again at 4500 × g for 15 min and snap-frozen in liquid N2. For protein purification cells were resuspended in buffer A (20 mM Tris–HCl pH 8.0, 500 mM NaCl), and lysed by sonication (Branson DS450). The lysate was cleared by centrifugation at 7000 × g for 60 min and filtrated using a 0.45 µm molecular weight cutoff filter (Pall Corporation, Port Washington, NY, USA). The supernatant was loaded onto a Ni^2+ affinity column (HisTrap HP 5 mL, Cytiva Life Sciences, Freiburg im Breisgau, Germany), washed with buffer A and eluted in buffer A supplemented with 250 mM imidazole pH 8.0. The elution fractions containing the trxA-14-3-3 or trxA-BIN2 fusion proteins were loaded onto a 5 mL Strep-Tactin Superflow High Capacity column (IBA Lifesciences, Goettingen, Germany), washed with buffer A and eluted in buffer A supplemented with 2.5 mM desthiobiotin. […] Dimeric (14-3-3s) or monomeric (BIN2) peak fractions were concentrated to 10–40 mg/ml and used directly for biochemistry and crystallization experiments. Point mutations were introduced by site-directed mutagenesis and variants At14-3-3 λ^N233A and 14-3-3 λ^R136L/Y137F were purified using the same protocol as described for the wild type.
The BRI1^814−1196 and BAK1^250−615/SERK3 cytoplasmic domains were purified as previously described ([Bojar et al. 2014]). BSK1 (residues 55–512), BSU1 (residues 1–793) and BIN2 (residues 7–380) were cloned into a modified pACEBac1 plasmid ([Bieniossek et al. 2012]) providing TEV-cleavable N-terminal 8xHis and tandem StrepII affinity tags, and expressed in baculovirus-infected Trichoplusia ni Tnao cells ([Hashimoto et al. 2010]). Cells grown to a density of 1.5 × 10^6 cells ml^−1 were infected with 10 ml of virus subjected to two rounds of viral amplification per 250 ml of cells and incubated for 48 h at 28°C. […]

| Molecule | binding to 14-3-3κ, in words |
| --- | --- |
| B1 | No specific binding was detected |
| B2 | No specific binding was detected |
| B3 | No specific binding was detected |
| B4 | No specific binding was detected |
